“Also recorded” adds a separate entry of the source. Values belong to the molecule of their own block, whether it stands above or below them. Where no end group is shown, it is not given here.
Key:
HLA-DQ2 = molecular target: T1, HLA-DQ2 (Homo sapiens, UniProt P01909+P01920, A45G/A70V/D89A/E106A/E77G/E98D/H199R/L107V/N214S/P84L/P87L/T103K/T109R/T172A/T60S/V78E/V99I/Y58L/Y62S/Y69I/Y79F); assay: Peptide exchange assay (HPSEC, fluorescein-conjugated peptides); format: binding; settings: for DQ2 binding affinity: pH 5 and pH 7; for maximum occupancy (DQ2 bound peptide): pH 7.3, 45 h; for binding maximum (DQ2 bound peptide as percentage of total peptide): pH 5.5, 37° C., 45 h, 4.7 μM DQ2, 0.18 μM peptide
T1 construct: the soluble extracellular domains of the DQ2 α and β chains were co-expressed; Fos leucine zipper, joined through a factor Xa site (C); gliadin peptide […]; Jun leucine zipper, joined through a factor Xa site (C); made in house; host or cells: High Five insect cells, pAcAB3 baculovirus
Protocol: FIG. 8. Equilibrium occupancy of individual peptides listed in Table 1 in the DQ2 binding pocket, as measured by peptide exchange assays. Measurements were made at (A) pH 5.5 and (B) pH 7.3. 4.7 μM DQ2 was mixed with 0.18 μM fluorescein-conjugated peptide at 37° C. for 45 h, and the abundance of DQ2 bound peptide was calculated as a percentage of total peptide.
DQ2 expression and purification. Soluble DQ2 molecules were expressed and purified as previously described. Briefly, the soluble extracellular domains of the DQ2 α and β chains were co-expressed in High Five insect cells using a pAcAB3 baculovirus expression system, and were affinity-purified using the anti-DQ2 mAb 2.12.E11. […] A complementary Fos/Jun leucine zipper pair was engineered at the C-terminal ends of α and β chains, respectively, with intervening factor Xa proteolysis sites, to increase the heterodimer stability during protein expression.
The concentration of HLA-DQ2 was determined by UV spectrophotometry at 280 nm using the absorption coefficient factor 75,700 cm^−1M^−1 as calculated from the contents of tyrosine, tryptophan and cystine in the DQ2 sequence (22). Prior to use in binding experiments with exogenous ligands, the DQ2-ligand fusion protein was first treated with ˜2% w/w thrombin in pH 7.3 PBS at 0° C. for 2 h.
Peptide exchange assay. For peptide exchange experiments, the DQ2 heterodimer purified as described above was incubated with fluorescein-conjugated ligands in a 25:1 ratio (i.e. 4.7 μM DQ2 with 0.18 μM fluorescent peptide). Incubations were performed at 37° C. in a 1:1 mixture of PBS buffer (10 mM Pi, 150 mM NaCl, pH 7.3, supplemented with 0.02% NaN3) and McIlvaine's citrate-phosphate buffers (pH 5 or pH 7) such that the final pH was either 5.5 or 7.3, respectively. Peptide binding was measured by high performance size exclusion chromatography (HPSEC) (17). 1 μl of reaction mixture was diluted into 14 μl PBS. 12.5 μl of the diluted material was injected onto a BioSep 3000 size exclusion column (Phenomenex), and eluted with PBS buffer at 1 ml/min. The DQ2-peptide complex eluted at 8.5 min, with free peptides emerging […] later. The fluorescence signal was recorded using an in-line Shimadzu RA35 fluorescent detector with excitation wavelength set at 495 nm and emission detection set at 520 nm. Peak areas corresponding to the DQ2-peptide complex and the free peptide were used to calculate the fractional yield of the DQ2-fluoresceinated peptide complex.

[1] = test system: polyclonal T cell line that recognizes all α epitopes; assay: T cell proliferation, polyclonal T cell line (FIG. 9A); format: cell-based, human; settings: paraformaldehyde-fixed DQ2 antigen presenting cells
Protocol: (§1) FIG. 9A-9B. […] Paraformaldehyde-fixed DQ2 cells were used as antigen presenting cells. (A) Proliferation of a polyclonal T cell line that recognizes all α epitopes. (B) Proliferation of a clonal T cell line that recognizes the αII epitope (peptide 3).
(§2) T cell proliferation assays. The DQ2 homozygous […] cell line (LCL) VAVY cells were irradiated with 12,000 rads of γ-irradiation or fixed with 1% paraformaldehyde for 10 minutes as indicated, and incubated with the appropriate peptides overnight in media containing 10% fetal bovine serum, 2% human serum, penicillin and streptomycin at a cell density of 2×10^6 cells/ml in 96-well plates. The next day, the volume was doubled to yield a cell density of 1×10^6 cells/ml, 50 μl of which was placed into a U-bottom 96-well plate. An equal volume of T-cells (50 μl of 1×10^6 cells/ml) was added to each well, and cells were incubated at 37° C. and 5% CO2 for 48 h, at which point 0.5 μCi/well of [methyl-^3H] thymidine (Amersham, TRK120) was added. […] After thawing, incorporated thymidine was collected on a filter mat (Wallac, 1205-401) using a Tomtec cell harvester, and counted using a Wallac 1205 Betaplate liquid scintillation counter.
(§3) To test this hypothesis, we synthesized the 20-mer peptide 5, and quantitatively compared its ability to bind DQ2 in peptide exchange and dissociation assays. […]

[2] = test system: clonal T cell line that recognizes the αII epitope; assay: T cell proliferation, clonal T cell line (FIG. 9B); format: cell-based, human; settings: paraformaldehyde-fixed DQ2 antigen presenting cells
Protocol: as §1, §2, §3

[3] = test system: rat brush border membrane (BBM) protein; assay: Rat brush border membrane (BBM) digestion of gliadin peptides, LC-MS; format: in vitro ADME; settings: for apparent half time of disappearance of the parent peptide (t1/2): 100 μM peptide, 37° C.
Protocol: To dissect this complex process, liquid chromatography coupled mass spectroscopy analysis (LC-MS-MS) was utilized to investigate the pathways and associated kinetics of hydrolysis of immunodominant gliadin peptides treated with rat BBM preparations. Because the rodent is an excellent small animal model for human intestinal structure and function, rat BBM was chosen as a suitable model system for these studies.
BBM fractions were prepared from rat small intestinal mucosa as described by Ahnen et al. (1982) J. Biol. Chem. 257, 12129-35. […] No proline aminopeptidase (EC 3.4.11.5) or prolyl endopeptidase activity (PEP, EC 3.4.21.26) activity was detectable (<5 μU/μg). Alkaline phosphatase and sucrase were used as control BBM enzymes with activities of 66 μU/μg and 350 μU/μg, respectively.
BBM fractions were partially purified from the small intestinal mucosa of adult female rats maintained on an ad libitum diet of wheat-based standard rodent chow. Total protein content was determined by a modified method of Lowry with BSA as a standard. Alkaline phosphatase activity was determined with nitrophenyl phosphate. Sucrase activity was measured using a coupled glucose assay.
Proteolysis with the BBM preparation was investigated using the peptide (SEQ ID NO:1) (SEQ ID NO:1) […], a product of chymotryptic digestion of α-9 gliadin (Arentz-Hansen et al. (2000) J. Exp. Med. 191, 603-12). […] It was subjected to BBM digestion, followed by LC-MS-MS analysis. A standard 50 μl digestion mixture contained 100 μM of synthetic peptide, 10 μM tryptophan and Cbz-tryptophan as internal standards, and resuspended BBM preparations with a final protein content of 27 ng/μl and exogenous proteins, as indicated, in phosphate buffered saline. After incubation at 37° C. for the indicated time, the enzymes were inactivated by heating to 95° C. for 3 minutes. The reaction mixtures were analyzed by LC-MS (SpectraSystem, ThermoFinnigan) using a C18 reversed phase column (Vydac 218TP5215, 2.1×150 mm) with water:acetonitrile:formic acid (0.1%):trifluoroacetic acid (0.025%) as the mobile phase (flow: 0.2 ml/min) and a gradient of 10% acetonitrile for 3 minutes, 10-20% for 3 minutes, 20-25% for 21 minutes followed by a 95% wash. Peptide fragments in the mass range of m/z=300-2000 were detected by electrospray ionization mass spectroscopy using a LCQ ion trap, and their identities were confirmed by MSMS fragmentation patterns.

rat jejunum = assay: In vivo intestinal perfusion in intact adult rats; settings: 15-20 cm segment of jejunum, residence time 20 min
[4] = test system: rat small intestinal brush-border membrane (BBM) enzymes; assay: Rat BBM digestion of peptides from α2-gliadin (12 ng/μl BBM protein); format: in vitro ADME
Protocol: BBM fractions were prepared from rat small intestinal mucosa.

[5] = molecular target: 33-mer α2-gliadin peptide (non-deamidated), residues 57-89
[6] = test system: pepsin, trypsin, chymotrypsin, elastase and carboxypeptidase
[7] = molecular target: soluble HLA-DQ2 heterodimer (extracellular domains of the DQ2 α and β chains with Fos/Jun leucine zippers), thrombin-treated (human); assay: peptide exchange kinetics, HPSEC
[8] = molecular target: soluble HLA-DQ2 heterodimer (extracellular domains of the DQ2 α and β chains with Fos/Jun leucine zippers), thrombin-treated (human); assay: peptide exchange kinetics, HPSEC, pH 7.3

DQ2 binding affinity (HLA-DQ2): bound poorly to DQ2
Molecule: LQLQPFPQPEKPYPQPELPY [Peptide 17, L11K analogue of 20-mer peptide 5]

DQ2 binding affinity (HLA-DQ2): bound poorly to DQ2
Molecule: LQLQPFPQPELPYPQPEKPY [Peptide 18, L18K analogue of 20-mer peptide 5]

Molecule: LQLQPFPQPELPYPQPELPY [Peptide 5]
T cell stimulatory characteristics [1]: substantially more potent T cell antigens than the minimal αII epitope peptide 3
DQ2 binding affinity (HLA-DQ2): comparable to the 33-mer peptide 1 in all in vitro assays; also recorded: binds to DQ2 equally well as the 33-mer peptide 1
T cell stimulatory capacity [2]: comparable T cell stimulatory capacity that exceeds that of peptide 3

time to half maximal DQ2 occupancy (HLA-DQ2; exchange kinetics): ~8 h
maximum occupancy (DQ2 bound peptide) (HLA-DQ2): 28%
Molecule: LQLQPFPQPELPYPQPELPYPQPELPYPQPQPF [Peptide 1]
T cell stimulatory characteristics [1]: substantially more potent T cell antigens than the minimal αII epitope peptide 3
T cell stimulatory capacity [2]: comparable T cell stimulatory capacity that exceeds that of peptide 3

Molecule: LQLQPFPQPELPYPQPELPYPQPQLPYPQPQPF [Peptide 14]
DQ2 binding affinity (HLA-DQ2): significantly enhances affinity relative to Q10E (11)

Molecule: LQLQPFPQPELPYPQPQLPYPQPELPYPQPQPF [Peptide 15]
DQ2 binding affinity (HLA-DQ2): significantly enhances affinity relative to Q10E (11)

Molecule: LQLQPFPQPELPYPQPQLPYPQPQLPYPQPQPF [Peptide 11]
DQ2 binding affinity (HLA-DQ2): higher affinity for DQ2 than either Q17E (12) or Q24E (13)

Molecule: LQLQPFPQPQLPYPQPELPYPQPELPYPQPQPF [Peptide 16]
DQ2 binding affinity (HLA-DQ2): approximates the 33-mer binding characteristics

binding maximum (DQ2 bound peptide as percentage of total peptide) (HLA-DQ2): less than 1%
maximum occupancy (DQ2 bound peptide) (HLA-DQ2): undetectable
Molecule: PFPQPELPY [Peptide 2]

binding maximum (DQ2 bound peptide as percentage of total peptide) (HLA-DQ2): 7%
Molecule: PQPELPYPQ [Peptide 3]

Molecule: PQPELPYPQPELPY [Peptide 6]
DQ2 binding affinity (HLA-DQ2): considerably lower affinity for DQ2 than peptide 5

Molecule: PQPQLPYPQPQLP
stability toward BBM digestion ([3]; 27 ng/μl rat BBM protein): highly resistant to further digestion

Molecule: QLQPFPQPQLPY
apparent half time of disappearance of the parent peptide (t1/2) ([3]; 27 ng/μl rat BBM protein): 35 min
digestion in the presence of exogenous DPP IV ([3]; BBM plus 6-fold excess activity of exogenous fungal DPP IV): complete digestion was observed within four hours
fraction of peptide proteolyzed in the perfusion experiment (rat jejunum): > 90%

Molecule: RRLIEDNEYTARG
clearance of digestive intermediates ([3]; 27 ng/μl rat BBM protein): cleared completely within one hour
apparent half time of disappearance of the parent peptide (t1/2) ([3]; 27 ng/μl rat BBM protein): 10 min

Molecule: WQIPEQSR
half-life of disappearance [4]: ~60 min

B1: human tissue transglutaminase (tTGase) (protein)
chain: AEELVLERCDLELETNGRDHHTADLCREKLVVRRGQPFWLTLHFEGRNYEASVDSLTFSVVTGPAPSQEAGTKARFPLRDAVEEGDWTATVVDQQDCTLSLQLTTPANAPIGLYRLSLEASTGYQGSSFVLGHFILLFNAWCPADAVYLDSEEERQEYVLTQQGFIYQGSAKFIKNIPWNFGQFEDGILDICLILLDVNPKFLKNAGRDCSRRSSPVYVGRVVSGMVNCNDDQGVLLGRWDNNYGDGVSPMSWIGSVDILRRWKNHGCQRVKYGQCWVFAAVACTVLRCLGIPTRVVTNYNSAHDQNSNLLIEYFRNEFGEIQGDKSEMIWNFHCWVESWMTRPDLQPGYEGWQALDPTPQEKSEGTYCCGPVPVRAIKEGDLSTKYDAPFVFAEVNADVVDWIQQDDGSVHKSINRSLIVGLKISTKSVGRDEREDITHTYKYPEGSSEEREAFTRANHLNKLAEKEETGMAMRIRVGQSMNMGSDFDVFAHITNNTAEEYVCRLLLCARTVSYNGILGPECGTKYLLNLNLEPFSEKSVPLCILYEKYRDCLTESNLIKVRALLVEPVINSYLLAERDLYLENPEIKIRILGEPKQKRKLVAEVSLQNPLPVALEGCTFTVEGAGLTEEQKTVEIPDPVEAGEEVKVRMDLLPLHMGLHKLVVNFESDKLKAVKGFRNVIIGPA
kcat/KM (deamidation by tTGase) [5]: kcat/KM=440 min-1 mM-1

B2: myoglobin: another common dietary protein (protein, UniProt P02144 2-154, looked up)
Myoglobin: GLSDGEWQLVLNVWGKVEADIPGHGQEVLIRLFKGHPETLEKFDKFKHLKSEDEMKASEDLKKHGATVLTALGGILKKKGHHEAEIKPLAQSHATKHKIPVKYLEFISECIIQVLQSKHPGDFGADAQGAMNKALELFRKDMASNYKELGFQG
stability toward gastric and pancreatic proteases [6]: rapidly broken down into much smaller products

time to half maximal DQ2 occupancy [7]: 8 h
maximum occupancy [8]: 28%
Molecule: {5(6)‑carboxyfluorescein}-LQLQPFPQPELPYPQPELPYPQPELPYPQPQPF [33-mer peptide 1 (deamidated 33-mer from α2-gliadin), fluorescein-conjugated]

Reference: US20080299108A1, “Peptides for Diagnostic and Therapeutic Methods for Celiac Sprue” (priority 2005, published 2008)
